# According to the nanobody polyreactivity screen of Harvey et al. (2022):
# Assay: yeast display, Sf9 membrane polyspecificity reagent, FACS + sequencing; frameworks hold sequencing errors
# In short: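 Synthetic nanobody libraries on Saccharomyces cerevisiae BJ5465 were galactose-induced for 36–48 hours, stained 1 hour at 4 °C with 10% biotinylated, detergent-solubilized Sf9 membrane reagent and enriched on streptavidin microbeads. FACS then separated cells into low and high (top ~1%) gates by anti-HA (expression) and streptavidin (reagent binding) fluorescence. Genes were colony-PCR amplified, MiSeq 2 × 250 sequenced and CDR-length filtered. A clone's polyreactivity label is that of its gate of origin.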
row,Sequence,polyreactivity (PSR sort gate)
1,QVQLVESGGGLVQAGGSLRLSCAASGFTFSPYTMGWSRQAPGKERELVATIRYDGTSTYYADSVKGRFTISRDNAKNTVYLQMNSLKREDTAVYYCAAEIWRVYSTFYYWGQGTQVSVSS,low polyreactivity
2,QVQLVESGGGLVQAAGSLRLSCAASGSIFTVYVMGWYRLAPGKEREFVATINWRGTSTYYADSVKGRFTISRDNEKNTVYLQMNSLKPEDTAVYYCAAVGSYYGGYDYWGQGTQVTVSS,high polyreactivity
3,QVQLVESGGGLVQAGGSLRLSCASSGRTFVSNAKGWYRQAPGKERELVAVITGIGGNTYYADSVKGRFTISRDNAKNSDYLQMNSLKPEDTAVYYCAADISLVSYYYWGQGTQVTVSS,low polyreactivity
4,QVQLVESGGGLGQAGGSLRLSCAASGRIFGYYAMGGYRQAPGKARELVAGIDWSGGNTYYADSVKGRFTISRDNAKNTVYLQMNSLKPEDTAVYYCAKYKGRGDSGYDSWGQGTQVTVSS,low polyreactivity
5,QVQLVESGGGLVQAGGSLSLSCAASGGIFFYYAMGWYRQAPGKEMELVASISYSGGSTYYADSVKGRFTISRDNAKNTVYLQMNSLKTEDTAVYYCAARTHYFPWPWYVWDYDSWGQGTQVTVSS,low polyreactivity
6,QVQLVESGGGLVQAGGSLRLSCAASGSNFTNYAMGWYRPAPGKERELVARITSSGSRTYYADSVKGRFTISRDNAKNTVYLQMNSLKPEDTAVYYCNAETYYLRYGRGYRRFDYWGQGTQVTVSS,high polyreactivity
7,QVQLVESGGGLVQAGGSLRLSCAASGFTYSTNAMGWYRQAPGTERELVAAISGSGGSTYYADSVKGRFTISRDNAKNTVYLQMNSLKPEDTAVYYCAARCPYYSWGRYEYYYWGQGTQVTLSS,high polyreactivity
8,QVQLVESGGGLVQAGGSLRLSCAASGLTFPRNTMGWYRQAPGKERELVAVISSSGGITYYADSVKGRFTISRDNAKNTVYLQMNSLKPEDTAVYYCAARTRVPRMGYWGQGTQVTVSS,high polyreactivity
9,QVQLVESGGGLVQAGGSLRLSCAASGSIFDWNAMGWYRQAPGKERELVAAIRRGGSTYYADSVKGRFTISRDNAKNTVYLQMNSLKPEDTAVYYCATRFYSRYYILDYDYWGQGTQLTVSS,high polyreactivity
10,QVQLVESGGGLVQAGGSLRLSCAASGFTLGSYAMGWYRQAPGKDRELVARISSDGSTNYADSVKGRFTISRDNAKNTVYLQMNSLKPEDTAVYYCAADFTYYDSPYRDYNYESWGQGAQVTVSS,low polyreactivity
11,QVQLQESGGGLVQEGGSLRLSCAASGTISQEDWMGWYRQAPGKEREFVAAIGLGSNTNYADSLKGRFTISRDNAKNTVYLQMNSLKPEDTAVYYCAVSVWQYSDHVYRGQGTQVTVSS,low polyreactivity
12,QVQLVESGGGLVQAGGSLRLSCAASGRTFARYALGWYRQAPGKERELVAAISWSGGSTYYADSVKGRFTISRDNAKNTVYLQMNSLKPEDTAVDYCAAGYGARSAKFDVYGTNEGDYWGQGTQVTVSS,high polyreactivity
13,QGQLVESGGGLVQAGGSLRLSCAASGRTYDYNAMGWYRQAPWKEWELVAAISSGGSITHYADSVKGRFTISRDNAKNTVYFQMYSLKPEDTAVYYCNAAHLAHRFIGYTRWNYYYWGQGTQVTVTS,high polyreactivity
14,QVQLVESGGGLVQAGGSLRLSCAASGFTFTRYAKGWYRQAPGKERELVAAISQNGGSTYYADSVKGRFTISRDNAKNTVYLQMNSLKPEDTAVYYCYAGVRRTIAFDYWGQGTQVTVSS,high polyreactivity
15,QVQLVESGGGLVQAGGSLRLSCAASGFIFYRNTMGWYRQAPGKEREFVAAIRWRGGSTYYADSVKGRFTISRDNAKNTVYLQMNSLKPEDTAVYYCNALGKPTWYATTYDYWGQGTQVTVSS,high polyreactivity
16,QVQLVESGGGLVQAGGSLRLSCAASGIIISYYAMGWYRQAPGTERELVAAINWNGDSTHYADSVKGRFTISRDNAKNTVYLKMNSLKPEDTAVYYCAAGYTPDTRCHYGTHDMDYWGQGTQVTVSS,low polyreactivity
17,QVQLVESGGGLVQAGGSLRLSCAASGITFFVYAMGWYRQAPGKERELVAAITSGDSTSYADSVKGRFTISRDNAKNTVYLQMNSLKPEDTAVYYCAAEQVTIEDGVYFDFNSWGQGTQVTVSS,low polyreactivity
18,QVQLVESGGGLVQAGGSLRLSCAASGITFYYYAMGWYRQEPGKERELVAAINWSGTSTYYADSVKGRFTISRDNAKNTVYLQMNSLKPEDTAVYYCNAERGRSFWWAYDYWGQGTQVTVSS,low polyreactivity
19,QVQLVESGGGLVQAGGSLRLSCAASGSIFLTYAMGWYRQAPGKERELVAAITDSDGSTSYADSVKGRFTISRDNAKNTVYLQMNSLKPEDTAVYYCAKDFPGRRPPKDPSAFYYWGQGTQVTVSS,low polyreactivity
20,QVQLVESGGGLFQAGGSLPVSCAASGFIFDDYAMGWYRQAPGKERELVAAISSGGSTNYADSVKGRFTISRDNAKNTVYLQLNSLKPEDSAVYYCADRAGYQFSYNYWGQGTQVTVSS,high polyreactivity

row,Sequence,polyreactivity (PSR sort gate)
1,QVQLVESRGGLVQAGGSLLLSFAASGRTYPYNAMGWYIQAPRKERELVAGISSGGTTTYADSVKGRFTISRDNAKNTVYLQMNSLKPEDTAVYYCAATVIIFDHSLPGWDDYDYWGQGTQVTVSS,low polyreactivity
2,QVQLVESGGGLVQAGGSLRLSCAASGRIFTPYAMGWYRQAPGKERELVAVIRDGSTYYADSVKGRFTISRDNAKNTVYIQMNSLKPEDTAVYYCRYDIWVWWSGAYDYWGQGTQVTVSS,low polyreactivity
3,QVQLVESGGGLVQAGGSLRLSCAASGLTFGGNAMGWYRQAPGKERELVAAISWSDDTTDYADSVKGRLTISRDNAKNTVYLQMNSLKPEDTAVYYCAARLPFEHVDYWGQGTQVTVSS,low polyreactivity
4,QVQLVESGGGLVQAGGSLRLSCAASGINFRQYTMGWFRQAPGKERELVAAITSSGRTYYADSVKGRFTISRDNAKNTVYLQMNSLKPEDTAVYYCAAKGTYRGHDYWGQGTQVTVSS,high polyreactivity
5,QVQLVESGGALVQAGGSLRLSCAASGSISWKNAMGWYRKAPGKERELVAAISSTVTYYADSVKGRFTISRDNAKNTVYLQMNRLKPADTAVYYCAAEYLAYTTLYTGDYWGQGTQVTVSS,low polyreactivity
6,QVQLVESGGGLVEAGGSLRLSCAASGFTFGYYAMGWYRPAPGKERELVAAITNGGRTNYAYSVKGRFTISRDNAKNTVYLQMNSLKPEDTAVYFCATDHYWSREVYWGQGTQVTVSS,low polyreactivity
7,QVQLVESGGGLVQAGGSLRLSCAASGSTFSYYAMGWYRQAPGKERELVAAISWSGGSTYYADSVKGRFTISRDNAKNTVYLQMNSLKPEDTAVYYCAIVTRKTYYVGNGDYWGQGTQVTVSS,high polyreactivity
8,QVQLVESRGGLVQAGGSLRLSCATSGRIFAKYAMGWYRQAPGKESELVAAITTTGRTYYADSVKGRFTISRDNAKNTVYLQMNSLKPEDTAVYYCAVGYHAPKVSTSDARYDYWGQGTQVTVSS,low polyreactivity
9,QVQLVESGGGLVQAGGSLRLSCAASGSTFDSYAIGWYRQAPGKERELVAGISIVGSTNYADSVKGRFTISPDNAKNTVYLQLNSLKPEDTAVYYCNAGYFRGSNAIKVRLTYDHWGQGTQVTVSS,low polyreactivity
10,QVQLVESGGGLVQAGGSLRLSCAASGSIFGDNAMGWYRQAPGKERELVARISSGGNTYYADSVKGRFSISRDNAMNTVYLQMNSLKPEDTAVYYCAAAIIVRYKKFPYYYWGQGTQVTVSS,high polyreactivity
11,QVQLVESGGGLVQAGGSLRLSCAASGRIFHFYAMGWYRQAPGKERELVAAITSRTGNTYYADSVKGRYTISRDNAKNTVYLQMNSLKPEDTAVYYCAAKLVNALLHYRNWNHNNYWGQGTQVNVSS,low polyreactivity
12,QVQLVESGVGLVQAGGSLRLICAASGSTFYRNAMGWYRHAPGKERELVAGISRRGGSTYYADSVKGRFTISRDIAKNRVYLQMNSLIPEDTAVYYCNADYPGIPHNDYWGQGTQVNVSS,low polyreactivity
13,QVQLVESGGGLVQAGGSLRLSCAASGSTFYYNDMGWYRQAPGKERELVAAIRTSGSTNYADSVKGRFTISRDYAKNNVYLQMNSLKPEDTAVYYCNAVVRHWFPGWYGRGDDYWGQGTQVTVSS,low polyreactivity
14,QVQLVESGGGLVQAGGSLRLSCAASGFTFEKYVMGWYIQAPGKETEFVAAITRSGGRTYYADSVKGRFTISRDNAKNTVYLQMNSLKPEDTAVYSCNAVTSWAGSLDYWGQGTQVTVSS,high polyreactivity
15,QVQLVDSGGGLVQAGGSLRLRCAASGITYSYYTKGWYRQAPGKERDLVAGITRSGSTYYADSVKGRFTISRDNAYNTVYLQMNSLKPEDTAVYYCNARARGAYNRPNYPRYYYWGQGTQVTVSS,high polyreactivity
16,QVQLVESGGGLVQAGGSLRLSCAASGSTFFRYAMGWYRQAPGKERELVAAITTSGGNTYYADSVKGRFTISRDNAKNTVYLQMNSLKPEDTAVYYCNVLRGFPRYYYWGQGTQVTVSS,high polyreactivity
17,QVQLVESGGVLVQAGGSLRLSCAASGRIFHYYAMGWYRQAPGKETELVAANSSRRGSTYYADSVKGRFTISRDNAKNNFYLQMNILKAYDTAVYYCNARGWGYWVRFDYWGQGTQVTVSS,high polyreactivity
18,QVQLVESGGGLVQAGGSLRLSCAASGRTFRRYAMGWYRQAPGKERELVAAISRTGSTNNYADSVKGRFTISRDNAKNTVYLQMNSLIPEDTAVYYCKRQHNLGYGYDYWGQGTQVTVSS,high polyreactivity
19,QVQLVESGGRLVQAGGSLRLSCAASGRLFASNAMGWYLQAPGTEMELVAGNSRNGGSTFYADSVKGRFTISRDNAKNTVYLQMNSRKPEDSAVYYCARYYTHSGGYRDRIYYFWGQGTQVTVSS,low polyreactivity
20,QVQLVESGGGLVQAGGSLRLSCAASGLIFSYNAMGWYRQAHGKETELVATIRRVGSTNYADSVKGRFTISRDNAKNTVYLQMNSLQPDDTAVYYCAAVYVRIGTRYGYWGQGTQVTVSS,high polyreactivity
